In publication PMC4052440:
Substitutions are numbered along the chain they refer to. Names may count otherwise.

B1: yeast Atm1p (Saccharomyces cerevisiae S288C) (protein)
chain: SPVIFTVSKLSTQRPLLFNSAVNLWNQAQKDITHKKSVEQFSSAPKVKTQVKKTSKAPTLSELKILKDLFRYIWPKGNNKVRIRVLIALGLLISAKILNVQVPFFFKQTIDSMNIAWDDPTVALPAAIGLTILCYGVARFGSVLFGELRNAVFAKVAQNAIRTVSLQTFQHLMKLDLGWHLSRQTGGLTRAMDRGTKGISQVLTAMVFHIIPISFEISVVCGILTYQFGASFAAITFSTMLLYSIFTIKTTAWRTHFRRDANKADNKAASVALDSLINFEAVKYFNNEKYLADKYNGSLMNYRDSQIKVSQSLAFLNSGQNLIFTTALTAMMYMGCTGVIGGNLTVGDLVLINQLVFQLSVPLNFLGSVYRDLKQSLIDMETLFKLRKNEVKIKNAERPLMLPENVPYDITFENVTFGYHPDRKILKNASFTIPAGWKTAIVGSSGSGKSTILKLVFRFYDPESGRILINGRDIKEYDIDALRKVIGVVPQDTPLFNDTIWENVKFGRIDATDEEVITVVEKAQLAPLIKKLPQGFDTIVGERGLMISGGEKQRLAIARVLLKNARIMFFDEATSALDTHTEQALLRTIRDNFTSGSRTSVYIAHRLRTIADADKIIVLDNGRVREEGKHLELLAMPGSLYRELWTIQEDLDHLENELKDQQEL
B2: yeast Atm1p (Saccharomyces cerevisiae S288C; R284E) (protein)
chain: B1 chain with R258E

Substrate: Nc1ncnc2c1ncn2[C@@H]1O[C@H](COP(=O)(O)OP(=O)(O)OP(=O)(O)O)[C@@H](O)[C@H]1O
Assay: ATPase assay
Type: biochemical, Saccharomyces cerevisiae
Conditions: Mg-ATP
[1] = no cluster, table prints the error as ± 5.3

Protein	Km [1] [µM]	kcat [1] [min⁻¹]	Km (from the cluster-activation fit, table title prints R48E, column R284E) [µM]
B1	54.6 ± 0.4	1.93 ± 0.03	
B2			55.0 ± 16.5
